Reference: publication PMC9352680, “A comprehensive thermodynamic model for RNA binding by the Saccharomyces cerevisiae Pumilio protein PUF4”

T1: PUF4 RNA-binding domain (Saccharomyces cerevisiae, UniProt P25339 537-888)
T1 sequence: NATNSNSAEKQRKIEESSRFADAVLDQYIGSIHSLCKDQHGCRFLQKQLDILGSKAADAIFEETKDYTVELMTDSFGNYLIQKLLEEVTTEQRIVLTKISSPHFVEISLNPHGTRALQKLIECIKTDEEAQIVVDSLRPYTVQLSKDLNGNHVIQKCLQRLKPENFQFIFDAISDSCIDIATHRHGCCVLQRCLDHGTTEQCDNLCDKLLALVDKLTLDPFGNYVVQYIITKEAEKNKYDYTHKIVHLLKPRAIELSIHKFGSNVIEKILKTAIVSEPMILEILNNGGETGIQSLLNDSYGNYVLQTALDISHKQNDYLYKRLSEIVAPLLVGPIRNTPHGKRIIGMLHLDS

B1: Ib_S1_P3E.1_K3.1_C3.1_H3.1_[A4T]_A3.1_[T5C]_F3.1_T3.1 (ssRNA)
RNA: UCUCUUUGUUCAUAUCUCUU
B2: Ic_S2_P4E.1_K4.1_C4.1_H4.1_A4.1_[T5G]_[A6C]_[T7A]_F4.1_[T8C]_T4.1 (ssRNA)
RNA: UUUGAUUAAUAUGAUAUCGUUCUUUCUUGUAGCACAUUCUUUCUCGAUAUCAUAUUAAUCUUU
B3: Ic_S2_P4E.1_K4.1_C4.1_H4.1_A4.1_[T5G]_[A6C]_F4.1_[T8G]_[A9G]_T4.1 (ssRNA)
RNA: UUUGAUUAAUAUGAUAUCGUUCUUUCUUGUAGCUGGUUCUUUCUCGAUAUCAUAUUAAUCUUU
B4: Ic_S2_P4E.1_K4.1_C4.1_H4.1_A4.1_[T5G]_[A6T]_[T7C]_F4.1_[T8C]_T4.1 (ssRNA)
RNA: UUUGAUUAAUAUGAUAUCGUUCUUUCUUGUAGUCCAUUCUUUCUCGAUAUCAUAUUAAUCUUU
B5: Ic_S2_P4E.1_K4.1_C4.1_H4.1_A4.1_[T5G]_[A6T]_[T7A]_F4.1_[T8A]_T4.1 (ssRNA)
RNA: UUUGAUUAAUAUGAUAUCGUUCUUUCUUGUAGUAAAUUCUUUCUCGAUAUCAUAUUAAUCUUU
B6: Ic_S2_P4E.1_K4.1_C4.1_H4.1_A4.1_[T5C]_[A6G]_[T7C]_F4.1_[T8C]_[A9T]_T4.1 (ssRNA)
RNA: UUUGAUUAAUAUGAUAUCGUUCUUUCUUGUACGCCUUUCUUUCUCGAUAUCAUAUUAAUCUUU
B7: Ic_S2_P4E.1_K4.1_C4.1_H4.1_A4.1_[T5C]_[A6G]_[T7G]_F4.1_[A9T]_T4.1 (ssRNA)
RNA: UUUGAUUAAUAUGAUAUCGUUCUUUCUUGUACGGUUUUCUUUCUCGAUAUCAUAUUAAUCUUU
B8: Ic_S2_P4E.1_K4.1_C4.1_H4.1_A4.1_[T5G]_[A6C]_F4.1_[A9C]_T4.1 (ssRNA)
RNA: UUUGAUUAAUAUGAUAUCGUUCUUUCUUGUAGCUUCUUCUUUCUCGAUAUCAUAUUAAUCUUU
B9: Ic_S2_P4E.1_K4.1_C4.1_H4.1_A4.1_[T5G]_[A6C]_[T7A]_F4.1_[A9G]_T4.1 (ssRNA)
RNA: UUUGAUUAAUAUGAUAUCGUUCUUUCUUGUAGCAUGUUCUUUCUCGAUAUCAUAUUAAUCUUU
B10: Ic_S2_P4E.1_K4.1_C4.1_H4.1_A4.1_[T5C]_[A6G]_[T7C]_F4.1_[T8G]_[A9T]_T4.1 (ssRNA)
RNA: UUUGAUUAAUAUGAUAUCGUUCUUUCUUGUACGCGUUUCUUUCUCGAUAUCAUAUUAAUCUUU
B11: Ic_S2_P4E.1_K4.1_C4.1_H4.1_A4.1_[T5C]_[A6G]_[T7C]_F4.1_[T8A]_[A9T]_T4.1 (ssRNA)
RNA: UUUGAUUAAUAUGAUAUCGUUCUUUCUUGUACGCAUUUCUUUCUCGAUAUCAUAUUAAUCUUU
B12: Ic_S2_P4E.1_K4.1_C4.1_H4.1_A4.1_[T5G]_[A6C]_[T7A]_F4.1_[T8A]_T4.1 (ssRNA)
RNA: UUUGAUUAAUAUGAUAUCGUUCUUUCUUGUAGCAAAUUCUUUCUCGAUAUCAUAUUAAUCUUU
B13: Ic_S2_P4E.1_K4.1_C4.1_H4.1_A4.1_[T5G]_[A6C]_F4.1_[T8A]_[A9G]_T4.1 (ssRNA)
RNA: UUUGAUUAAUAUGAUAUCGUUCUUUCUUGUAGCUAGUUCUUUCUCGAUAUCAUAUUAAUCUUU
B14: Ic_S2_P4E.1_K4.1_C4.1_H4.1_A4.1_[T5G]_[A6T]_[T7C]_F4.1_[T8C]_[A9G]_T4.1 (ssRNA)
RNA: UUUGAUUAAUAUGAUAUCGUUCUUUCUUGUAGUCCGUUCUUUCUCGAUAUCAUAUUAAUCUUU
B15: Ic_S2_P4E.1_K4.1_C4.1_H4.1_A4.1_[T5G]_[A6C]_[T7A]_F4.1_[A9T]_T4.1 (ssRNA)
RNA: UUUGAUUAAUAUGAUAUCGUUCUUUCUUGUAGCAUUUUCUUUCUCGAUAUCAUAUUAAUCUUU
B16: Ic_S2_P4E.1_K4.1_C4.1_H4.1_A4.1_[T5G]_[A6T]_[T7A]_F4.1_T4.1 (ssRNA)
RNA: UUUGAUUAAUAUGAUAUCGUUCUUUCUUGUAGUAUAUUCUUUCUCGAUAUCAUAUUAAUCUUU
B17: Ic_S2_P4E.1_K4.1_C4.1_H4.1_A4.1_[T5G]_[A6T]_F4.1_[T8G]_[A9C]_T4.1 (ssRNA)
RNA: UUUGAUUAAUAUGAUAUCGUUCUUUCUUGUAGUUGCUUCUUUCUCGAUAUCAUAUUAAUCUUU
B18: Ic_S2_P4E.1_K4.1_C4.1_H4.1_A4.1_[T5G]_[A6C]_F4.1_[A9T]_T4.1 (ssRNA)
RNA: UUUGAUUAAUAUGAUAUCGUUCUUUCUUGUAGCUUUUUCUUUCUCGAUAUCAUAUUAAUCUUU
B19: Ic_S2_P4E.1_K4.1_C4.1_H4.1_A4.1_[T5G]_[A6T]_[T7A]_F4.1_[T8A]_[A9T]_T4.1 (ssRNA)
RNA: UUUGAUUAAUAUGAUAUCGUUCUUUCUUGUAGUAAUUUCUUUCUCGAUAUCAUAUUAAUCUUU
B20: Ic_S2_P4E.1_K4.1_C4.1_H4.1_A4.1_[T5G]_[A6T]_[T7G]_F4.1_[T8C]_[A9G]_T4.1 (ssRNA)
RNA: UUUGAUUAAUAUGAUAUCGUUCUUUCUUGUAGUGCGUUCUUUCUCGAUAUCAUAUUAAUCUUU
B21: Ic_S2_P4E.1_K4.1_C4.1_H4.1_A4.1_[T5G]_[A6T]_[T7C]_F4.1_[T8C]_[A9C]_T4.1 (ssRNA)
RNA: UUUGAUUAAUAUGAUAUCGUUCUUUCUUGUAGUCCCUUCUUUCUCGAUAUCAUAUUAAUCUUU
B22: Ic_S2_P4E.1_K4.1_C4.1_H4.1_A4.1_[T5G]_[A6C]_F4.1_[A9G]_T4.1 (ssRNA)
RNA: UUUGAUUAAUAUGAUAUCGUUCUUUCUUGUAGCUUGUUCUUUCUCGAUAUCAUAUUAAUCUUU
B23: Ic_S2_P4E.1_K4.1_C4.1_H4.1_A4.1_[T5C]_[A6G]_[T7C]_F4.1_[T8C]_[A9G]_T4.1 (ssRNA)
RNA: UUUGAUUAAUAUGAUAUCGUUCUUUCUUGUACGCCGUUCUUUCUCGAUAUCAUAUUAAUCUUU

These binders were tested against T1, PUF4 RNA-binding domain (assay: Mg; RNA-MaP; 20 mM Na-HEPES pH 7.4, 30 mM KOAc, 0.75 mM MgCl2, 0.1% Tween-20, 5% glycerol, 0.1 mg/mL BSA, 2 mM DTT; 25 C; 0.0125-409.6 nM protein). Settings: tags: N-His6-TEV cleaved; C-SNAP kept, Cy3B-labelled; label: tethered on chip by stalled RNA polymerase.
Binder B1 has a Kd of 682 nM. Work on B2 yielded a Kd of 828 nM. In the case of B3, the Kd is reported as 709 nM. Binder B4 has a Kd of 527 nM. B5 was tested, and the Kd was 407 nM. B6 was tested, and the Kd was 81.6 nM. In the case of B7, the Kd is reported as 109 nM. B8 gave a Kd of 52.2 nM. In the case of B9, the Kd is reported as 27.6 nM. For B10, the Kd was 332 nM. With B11 the Kd was 235 nM. With B12 the Kd was 360 nM. B13 gave a Kd of 846 nM. In the case of B14, the Kd is reported as 732 nM. Work on B15 yielded a Kd of 9.32 nM. In the case of B16, the Kd is reported as 2.26 nM. In the case of B17, the Kd is reported as 588 nM. With B18 the Kd was 30.4 nM. In the case of B19, the Kd is reported as 342 nM. With B20 the Kd was 651 nM. B21 showed a Kd of 473 nM. With B22 the Kd was 208 nM. Work on B23 yielded a Kd of 501 nM.
